Biological target: human α-synuclein, monomeric, full length (human, UniProt P37840 1-140)
Assay: fluorescence polarisation

B1: Atto550-labeled SERF1a (Cys-SERF1a-Cys, N- and C-terminal double cysteine mutant) (natural protein)
chain: MC(Atto550 maleimide)ARGNQRELARQKNMKKTQEISKGKRKEDSLTASQRKQRDSEIMQEKQKAANEKKSMQTREKC(Atto550 maleimide)
Question: B1 was tested. Which Kd did it give?
Answer: Its Kd is 8.04 ± 2.09 µM.

— article PMC3807654 (Cell Reports, 2012)
